Consider one molecule from US20200157519A1 (IMMUNWORK, published 2020).

The target in the assay is T1, human fibrinogen (human, UniProt P02671 20-629; P02675 31-491; P02679 27-437, limits assumed).
T1 construct: Bought protein, used as the negative control antigen; also called fibrinogen from human (Sigma)
T1 sequence (looked up) 1: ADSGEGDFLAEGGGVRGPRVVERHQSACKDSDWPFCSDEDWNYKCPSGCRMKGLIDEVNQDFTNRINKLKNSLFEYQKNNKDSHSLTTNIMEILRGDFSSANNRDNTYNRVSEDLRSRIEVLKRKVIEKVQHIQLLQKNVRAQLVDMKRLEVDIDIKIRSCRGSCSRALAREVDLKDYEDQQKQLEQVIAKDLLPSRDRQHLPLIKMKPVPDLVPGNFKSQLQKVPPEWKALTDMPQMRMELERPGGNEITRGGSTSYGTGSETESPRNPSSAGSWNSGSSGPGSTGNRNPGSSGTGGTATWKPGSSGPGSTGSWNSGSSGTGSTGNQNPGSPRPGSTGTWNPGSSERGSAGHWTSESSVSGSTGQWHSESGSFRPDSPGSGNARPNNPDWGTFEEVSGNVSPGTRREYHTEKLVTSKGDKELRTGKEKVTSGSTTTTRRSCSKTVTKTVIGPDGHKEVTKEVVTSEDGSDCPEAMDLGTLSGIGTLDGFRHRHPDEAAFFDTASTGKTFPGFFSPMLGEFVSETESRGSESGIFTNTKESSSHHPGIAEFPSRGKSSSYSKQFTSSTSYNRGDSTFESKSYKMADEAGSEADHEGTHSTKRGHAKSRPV
T1 sequence (looked up) 2: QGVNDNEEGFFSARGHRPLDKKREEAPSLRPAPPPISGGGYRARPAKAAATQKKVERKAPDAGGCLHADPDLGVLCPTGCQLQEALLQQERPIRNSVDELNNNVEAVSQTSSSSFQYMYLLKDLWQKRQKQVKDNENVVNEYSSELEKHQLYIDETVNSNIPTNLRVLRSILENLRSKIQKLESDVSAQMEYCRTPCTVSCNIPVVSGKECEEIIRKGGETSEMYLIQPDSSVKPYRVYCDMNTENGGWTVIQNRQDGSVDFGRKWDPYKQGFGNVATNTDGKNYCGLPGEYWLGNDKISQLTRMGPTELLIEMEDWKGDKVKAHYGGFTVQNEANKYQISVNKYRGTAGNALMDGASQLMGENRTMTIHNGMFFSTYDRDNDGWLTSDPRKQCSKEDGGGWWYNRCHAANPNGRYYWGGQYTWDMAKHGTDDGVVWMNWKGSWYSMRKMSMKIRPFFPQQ
T1 sequence (looked up) 3: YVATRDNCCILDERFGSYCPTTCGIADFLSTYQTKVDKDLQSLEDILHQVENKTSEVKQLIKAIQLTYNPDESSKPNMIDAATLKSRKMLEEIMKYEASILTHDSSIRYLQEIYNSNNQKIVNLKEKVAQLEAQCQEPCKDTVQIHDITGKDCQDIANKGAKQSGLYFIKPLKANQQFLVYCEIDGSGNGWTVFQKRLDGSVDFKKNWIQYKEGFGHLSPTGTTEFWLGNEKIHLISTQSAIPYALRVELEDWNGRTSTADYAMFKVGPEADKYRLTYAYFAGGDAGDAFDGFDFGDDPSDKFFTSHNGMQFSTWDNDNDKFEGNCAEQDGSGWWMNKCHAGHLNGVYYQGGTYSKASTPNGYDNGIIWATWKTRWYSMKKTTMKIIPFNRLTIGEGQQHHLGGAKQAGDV
Briefly: ELISA, HRP-conjugated polyclonal rabbit anti-reteplase antibody. (In general: In an ELISA, binding on a coated surface is turned into a signal by an enzyme label.)

B1: recombinant (3D5 VL-(G4S)3-VH scFv α fibrin)-reteplase polypeptide (other)
chain: DIQMTQSPSSLSASVGDRVTITCRASQDVSNNVAWYQQKPGKAPKLLIFWSPWLYSGVPSRFSGSGSGTDFTLTISSLQPEDFATYYCQQGWDSPVTFGQGTKVEIKRGSTSGSGKPGSGEGSTKGEVQLVESGGGLVQPGGSLRLSCAASGFTISDFGIHWVRQAPGKGLEWVASIWPSGGYTYYADSVKGRFTISADTSKNTAYLQMNSLRAEDTAVYYCARSWFYSWYDYWGQGTLVTVSSASGGGGSGGGGSGGGGSSYQGNSDCYFGNGSAYRGTHSLTESGASCLPWNSMILIGKVYTAQNPSAQALGLGKHNYCRNPDGDAKPWCHVLKNRRLTWEYCDVPSCSTCGLRQYSQPQFRIKGGLFADIASHPWQAAIFAKHRRSPGERFLCGGILISSCWILSAAHCFQERFPPHHLTVILGRTYRVVPGEEEQKFEVEKYIVHKEFDDDTYDNDIALLQLKSDSSRCAQESSVVRTVCLPPADLQLPDWTECELSGYGKHEALSPFYSERLKEAHVRLYPSSRCTSQHLLNRTVTDNMLCAGDTRSGGPQANLHDACQGDSGGPLVCLNDGRMTLVGIISWGLGCGQKDVPGVYTKVTNYLDWIRDNMRPA
notes: Fusion: 3D5 scFv (VL, flexible linker, VH) at the N-terminus of reteplase through a flexible linker; also called (3D5 scFv)-reteplase
For B1, the binding result is “no binding”.
